Reference: paper PMC3102665, “A Sir2-Like Protein Participates in Mycobacterial NHEJ” (PLoS ONE, 2011)

T1: His-MsmLigD protein (M. smegmatis, UniProt A0R3R7 1-762)
T1 construct: Multifunctional DNA ligase LigD of Mycobacterium smegmatis; The vector pET28a with a BamHI insert would put the His tag at the N-terminus; source: E. coli BL21 (DE3), purified (Ni-NTA)
T1 sequence (looked up): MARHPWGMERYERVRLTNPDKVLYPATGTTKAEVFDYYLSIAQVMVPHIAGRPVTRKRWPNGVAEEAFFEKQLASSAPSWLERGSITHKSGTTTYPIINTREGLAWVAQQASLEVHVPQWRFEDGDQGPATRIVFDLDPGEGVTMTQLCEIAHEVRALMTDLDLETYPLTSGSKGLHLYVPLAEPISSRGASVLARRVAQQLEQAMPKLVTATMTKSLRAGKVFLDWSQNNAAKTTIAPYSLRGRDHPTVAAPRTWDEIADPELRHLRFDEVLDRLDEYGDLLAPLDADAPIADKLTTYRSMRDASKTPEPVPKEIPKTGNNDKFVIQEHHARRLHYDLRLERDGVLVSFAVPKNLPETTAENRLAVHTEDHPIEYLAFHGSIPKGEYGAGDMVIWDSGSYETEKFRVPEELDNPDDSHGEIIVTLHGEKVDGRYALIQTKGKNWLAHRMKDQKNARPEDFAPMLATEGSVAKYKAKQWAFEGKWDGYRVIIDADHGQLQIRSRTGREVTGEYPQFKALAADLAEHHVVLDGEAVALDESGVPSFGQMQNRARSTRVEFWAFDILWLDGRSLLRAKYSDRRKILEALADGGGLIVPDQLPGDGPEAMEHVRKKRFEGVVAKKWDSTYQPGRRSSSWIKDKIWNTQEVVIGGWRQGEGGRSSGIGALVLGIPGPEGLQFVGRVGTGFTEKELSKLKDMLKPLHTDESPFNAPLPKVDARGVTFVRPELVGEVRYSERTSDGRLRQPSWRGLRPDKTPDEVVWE

B1: GST-MtuSir2 fusion protein (enzyme)
chain: MRVAVLSGAGISAESGVPTFRDDKNGLWARFDPYELSSTQGWLRNPERVWGWYLWRHYLVANVEPNDGHRAIAAWQDHAEVSVITQNVDDLHERAGSGAVHHLHGSLFEFRCARCGVPYTDALPEMPEPAIEVEPPVCDCGGLIRPDIVWFGEPLPEEPWRSAVEATGSADVMVVVGTSAIVYPAAGLPDLALARGTAVIEVNPEPTPLSGSATISIRESASQALPGLLERLPALLK
notes: the vector pGEX-6P-1 would put GST at the N-terminus; also called MtuSir2-GST
B2: GST-MsmSir2 fusion protein (enzyme, M. smegmatis, UniProt A0R2N3 1-240, looked up)
chain: MQVTVLSGAGISAESGVPTFRDAETGLWAQVDPYEISSTDGWQRNPEKVWAWYLWRHYMMARVAPNEAHRTVAAWEDHLDVRVVTQNIDDLHERAGSTNVYHLHGSLFEFRCDACGSAFEGNLPEMPEPVETIDPPVCPCSGLIRPSVVWFGEPLPDAAWNRSVLAVSSADVVIVVGTSSIVYPAAGLPEAALAAGKPVIEVNPERTPLSDSATVSLRETASEALPTLLQRLPELLNRSA
notes: Sir2 (NAD-dependent deacetylase MSMEG_5175) of Mycobacterium smegmatis; the vector pGEX-6P-1 would put GST at the N-terminus; also called MsmSir2-GST; source: E. coli BL21 (DE3), purified (glutathione-Sepharose 4B)

Experiments:
His-MtuLigD protein = target: T2, His-MtuLigD protein (M. tuberculosis, UniProt P9WNV3 1-759); experiment: pull-down; settings: both partners purified
T2 construct: The vector pET28a with a BamHI insert would put the His tag at the N-terminus

His-MsmLigD protein = target: T1, His-MsmLigD protein; experiment: pull-down; GST fusion held on glutathione-Sepharose 4B beads, incubated with purified His-tagged protein at 4°C for 8 h in 50 mM Tris-HCl pH 7.5, 200 mM NaCl, 10% glycerol; washes with 0.1% Nonidet P-40; Western blot with anti-His-tag antibody; settings: both partners purified

T2 sequence (P9WNV3 whole entry): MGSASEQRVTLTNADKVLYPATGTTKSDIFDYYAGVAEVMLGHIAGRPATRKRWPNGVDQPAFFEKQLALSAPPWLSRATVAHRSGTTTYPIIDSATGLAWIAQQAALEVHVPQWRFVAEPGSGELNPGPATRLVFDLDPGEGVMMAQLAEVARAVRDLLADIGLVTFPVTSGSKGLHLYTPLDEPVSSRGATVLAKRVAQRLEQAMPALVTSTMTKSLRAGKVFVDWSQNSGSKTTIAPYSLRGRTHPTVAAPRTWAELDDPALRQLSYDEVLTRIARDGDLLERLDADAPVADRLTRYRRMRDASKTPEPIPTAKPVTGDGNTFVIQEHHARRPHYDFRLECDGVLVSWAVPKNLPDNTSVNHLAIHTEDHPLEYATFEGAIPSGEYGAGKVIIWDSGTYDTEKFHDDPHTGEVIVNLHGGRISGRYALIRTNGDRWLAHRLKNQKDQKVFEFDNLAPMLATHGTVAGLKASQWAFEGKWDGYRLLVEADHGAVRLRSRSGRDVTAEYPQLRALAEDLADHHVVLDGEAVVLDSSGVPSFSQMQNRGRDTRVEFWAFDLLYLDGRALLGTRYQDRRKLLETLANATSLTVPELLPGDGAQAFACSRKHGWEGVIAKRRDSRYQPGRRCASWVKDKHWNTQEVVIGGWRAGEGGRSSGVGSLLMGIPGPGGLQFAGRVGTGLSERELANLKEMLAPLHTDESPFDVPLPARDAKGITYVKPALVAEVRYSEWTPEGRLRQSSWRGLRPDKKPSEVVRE

| Binder | binding result (His-MtuLigD protein) | binding result (His-MsmLigD protein) |
| --- | --- | --- |
| B1 | binds |  |
| B2 |  | binds |
